Literature values in patent publication US9889085B1, “Therapeutic methods for the treatment of diabetes and related conditions for patients with high baseline HbA1c” (Intarcia Therapeutics, Inc., priority 2014, dated 2018).

Conditions: in vivo

Substance | half-life
EGTFTSDVSSYLEGQAAKEFIAWLVKGR [GLP-1] | approximately 2 minutes
PYY: 36 amino acid residue peptide amide | approximately 8 minutes
